What was measured:
MftR WT [1] = target: T1, MftR WT (Mycobacterium smegmatis mc2155, UniProt A0QSB5 1-200); test: EMSA; settings: EMSA: 50 mM Hepes, 50 mM NaCl, 0.1 mM EDTA, pH 7.5, room temperature 10 min, 5% PAGE in 1x TBE on ice; footprinting: 30 C 30 min; FP conditions not in material.
T1 sequence: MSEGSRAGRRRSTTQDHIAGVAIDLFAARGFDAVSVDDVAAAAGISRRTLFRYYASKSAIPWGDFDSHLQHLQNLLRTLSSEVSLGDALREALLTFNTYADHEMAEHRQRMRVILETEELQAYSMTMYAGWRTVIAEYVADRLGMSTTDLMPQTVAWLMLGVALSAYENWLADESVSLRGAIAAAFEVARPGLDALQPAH

MftR H68A = target: T2, MftR H68A (Mycobacterium smegmatis mc2155, UniProt A0QSB5 1-200, H68A); test: EMSA; 100 uM oleoyl-CoA; EMSA: 50 mM Hepes, 50 mM NaCl, 0.1 mM EDTA, pH 7.5, room temperature 10 min, 5% PAGE in 1x TBE on ice; footprinting: 30 C 30 min; FP conditions not in material. Text fold changes for R29A/R48A and L120R/M127A are swapped relative to Table 2; table values used; settings: protein: recombinant; tags: His-tag (pET-28a); chain copies: 2; label: 6-FAM; blunt
T2 sequence: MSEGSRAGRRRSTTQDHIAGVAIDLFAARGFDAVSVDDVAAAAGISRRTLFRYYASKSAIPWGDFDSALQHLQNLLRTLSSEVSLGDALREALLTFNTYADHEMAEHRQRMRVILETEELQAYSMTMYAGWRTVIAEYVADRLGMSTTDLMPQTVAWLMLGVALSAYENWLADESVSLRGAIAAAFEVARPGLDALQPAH

MftR D16R = target: T3, MftR D16R (Mycobacterium smegmatis mc2155, UniProt A0QSB5 1-200, D16R); test: as above; settings: protein: recombinant; tags: His-tag (pET-28a); chain copies: 2; label: 6-FAM; blunt
T3 sequence: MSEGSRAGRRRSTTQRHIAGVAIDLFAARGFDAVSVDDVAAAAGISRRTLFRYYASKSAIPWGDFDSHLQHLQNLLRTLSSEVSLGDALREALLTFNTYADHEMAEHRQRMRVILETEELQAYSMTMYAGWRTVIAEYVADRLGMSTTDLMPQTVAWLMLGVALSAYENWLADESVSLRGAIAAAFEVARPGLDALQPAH

MftR L120R = target: T4, MftR L120R (Mycobacterium smegmatis mc2155, UniProt A0QSB5 1-200, L120R); test: fluorescence polarization; EMSA: 50 mM Hepes, 50 mM NaCl, 0.1 mM EDTA, pH 7.5, room temperature 10 min, 5% PAGE in 1x TBE on ice; footprinting: 30 C 30 min; FP conditions not in material. Text fold changes for R29A/R48A and L120R/M127A are swapped relative to Table 2; table values used; settings: protein: recombinant; tags: His-tag (pET-28a); chain copies: 2; label: 6-FAM; blunt
T4 sequence: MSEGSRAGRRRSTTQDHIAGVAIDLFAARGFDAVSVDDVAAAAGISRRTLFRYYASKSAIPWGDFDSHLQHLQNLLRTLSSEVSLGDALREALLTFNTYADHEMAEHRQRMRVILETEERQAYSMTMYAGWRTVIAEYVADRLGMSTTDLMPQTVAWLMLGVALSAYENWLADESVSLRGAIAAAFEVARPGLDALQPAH

MftR WT [2] = target: T1, MftR WT; test: as above; settings: protein: recombinant; tags: His-tag (pET-28a, NdeI/XhoI); chain copies: 2; label: 6-FAM; blunt
MftR R29A = target: T5, MftR R29A (Mycobacterium smegmatis mc2155, UniProt A0QSB5 1-200, R29A); test: as above; settings: protein: recombinant; tags: His-tag (pET-28a); chain copies: 2; label: 6-FAM; blunt
T5 sequence: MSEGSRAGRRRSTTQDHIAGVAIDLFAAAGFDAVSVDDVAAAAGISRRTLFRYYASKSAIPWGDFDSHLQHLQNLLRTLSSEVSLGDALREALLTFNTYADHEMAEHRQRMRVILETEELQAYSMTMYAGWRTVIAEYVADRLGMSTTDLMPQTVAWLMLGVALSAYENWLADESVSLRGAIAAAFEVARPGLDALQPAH

MftR R48A = target: T6, MftR R48A (Mycobacterium smegmatis mc2155, UniProt A0QSB5 1-200, R48A); test: as above; settings: protein: recombinant; tags: His-tag (pET-28a); chain copies: 2; label: 6-FAM; blunt
T6 sequence: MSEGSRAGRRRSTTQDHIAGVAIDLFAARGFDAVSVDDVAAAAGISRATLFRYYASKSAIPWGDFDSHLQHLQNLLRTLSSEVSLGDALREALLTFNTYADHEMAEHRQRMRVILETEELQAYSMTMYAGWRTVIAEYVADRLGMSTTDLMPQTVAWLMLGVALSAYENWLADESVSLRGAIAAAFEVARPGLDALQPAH

MftR D38A = target: T7, MftR D38A (Mycobacterium smegmatis mc2155, UniProt A0QSB5 1-200, D38A); test: as above; settings: protein: recombinant; tags: His-tag (pET-28a); chain copies: 2; label: 6-FAM; blunt
T7 sequence: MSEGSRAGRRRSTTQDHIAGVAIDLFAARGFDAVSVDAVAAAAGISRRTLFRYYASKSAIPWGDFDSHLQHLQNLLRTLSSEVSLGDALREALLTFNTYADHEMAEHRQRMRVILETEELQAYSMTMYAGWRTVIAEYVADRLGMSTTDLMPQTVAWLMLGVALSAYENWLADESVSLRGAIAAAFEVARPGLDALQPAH

MftR M127A = target: T8, MftR M127A (Mycobacterium smegmatis mc2155, UniProt A0QSB5 1-200, M127A); test: as above; settings: protein: recombinant; tags: His-tag (pET-28a); chain copies: 2; label: 6-FAM; blunt
T8 sequence: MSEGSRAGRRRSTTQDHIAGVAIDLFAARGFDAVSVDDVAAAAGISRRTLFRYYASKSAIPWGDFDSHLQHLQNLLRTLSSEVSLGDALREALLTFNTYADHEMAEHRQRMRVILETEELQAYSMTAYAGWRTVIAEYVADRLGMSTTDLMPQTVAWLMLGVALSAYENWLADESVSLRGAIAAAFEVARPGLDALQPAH

Molecule	Kd (MftR WT [1])	binding result (MftR H68A)	binding result (MftR D16R)	Kd (MftR L120R)	Kd (MftR WT [2])	Kd (MftR R29A)	Kd (MftR R48A)	binding result (MftR D38A)	Kd (MftR M127A)
Pmft	0.6 µM	–	–	–	–	–	–	–	–
FAM-Omft (dsDNA) DNA 1: TCCATTCTGGCACTCGATGCCATATAT DNA 2: ATATATGGCATCGAGTGCCAGAATGGA	–	binds	binds	28 ± 6 µM	1.3 ± 0.6 µM	20.5 ± 2 µM	13 ± 1.1 µM	no binding	13 ± 6 µM

From article PMC8728441, “Biosynthesis of the redox cofactor mycofactocin is controlled by the transcriptional regulator MftR and induced by long-chain acyl-CoA species” (The Journal of Biological Chemistry, 2021)
